Test results from patent US20260139049A1 (PEDIATRIC IMMUNITY AND HEALTHCARE GUANGZHOU BIOTECHNOLOGY, published 2026).
Positions count from the first letter of the chain named.

B1: PiH1004-VH-Mutation8-VL (antibody, human IgG1, kappa, V domains shown)
VH: QVQLVQSGAEVKKPGASVKVSCKASGYTFTDYNMHWVRQAPGQSLEWIGYLNPNNGATSYNQKFKGRATMTVDKSTSTVYMELSSLRSEDTAVYNCARWDGYVYYYGLDYWGQGTLVTVSS
VL: DIQMTQSPSSLSASVGDRVTITCKASDHINNWLAWYQQKPGKVPKLLISGATSLETGVPSRFSGSGSGTDYTLTISSLQPEDVATYYCQQYWSTPYTFGGGTKLEIKR
notes: improved antibody from PiH1004
B2: PiH2011 (antibody, human IgG1, kappa, V domains shown)
VH: QVQLVQSGAEVKKPGASVKVSCKASGYTFTDYNMHWVRQATGQGLEWIGYINPNNGATNYNQKFKGRATLTVNKSISTAYMELRSLRSEDTAVYYCARWDGYVYYYGMDYWGQGTLVTVSS
VL: B1 VL with K45R, T69K, S93N
notes: humanized from 54B5A7; IgG1; also called 54-VH7 + VL5
B3: PiH2009 (antibody, human IgG1, kappa, V domains shown)
VH: B2 VH with L70M, V72R
VL: B1 VL with K45R, T69K, S93N
notes: humanized from 54B5A7; IgG1; also called 54-VH5 + VL5
B4: PiH2010 (antibody, human IgG1, kappa, V domains shown)
VH: B2 VH with L70M, V72R, Y95N
VL: B1 VL with K45R, T69K, S93N
notes: humanized from 54B5A7; IgG1; also called 54-VH6 + VL5
B5: PiH1003 (antibody, human IgG1, kappa, V domains shown)
VH: B1 VH with S44G, L51V, K74T
VL: B1 VL
notes: humanized from 51C10H4; IgG1; also called 51-VH3 + VL3
B6: PiH2012 (antibody, human IgG1, kappa, V domains shown)
VH: B2 VH with Q39K, G44S, L70M, V72R, Y95N
VL: B1 VL with K45R, T69K, S93N
notes: humanized from 54B5A7; IgG1; also called 54-VH8 + VL5
B7: PiH1004-VH-Mutation11-VL (antibody, human IgG1, kappa, V domains shown)
VH: B1 VH with L51V, Y110F
VL: B1 VL
notes: as for B1
B8: PiH1005 (antibody, human IgG1, kappa, V domains shown)
VH: B1 VH with S44G, L51V, V72R, K74T, N95Y
VL: B1 VL with D17G, K45R
notes: humanized from 51C10H4; IgG1; also called 51-VH1 + VL4
B9: PiH1004-VH-VL-Mutation4 (antibody, human IgG1, kappa, V domains shown)
VH: B1 VH with L51V
VL: B1 VL with A51G
notes: as for B1
B10: PiH1004-VH-VL-Mutation3 (antibody, human IgG1, kappa, V domains shown)
VH: B1 VH with L51V
VL: B1 VL with N31Q
notes: as for B1
B11: PiH1001 (antibody, human IgG1, kappa, V domains shown)
VH: B1 VH with S44G, L51V, V72R, K74T, N95Y
VL: B1 VL
notes: humanized from 51C10H4; IgG1; also called 51-VH1 + VL3
B12: PiH1002 (antibody, human IgG1, kappa, V domains shown)
VH: B1 VH with S44G, L51V, A68V, K74T
VL: B1 VL
notes: humanized from 51C10H4; IgG1; also called 51-VH2 + VL3
B13: PiH1004-VH-VL-Mutation7 (antibody, human IgG1, kappa, V domains shown)
VH: B1 VH with L51V
VL: B1 VL with S93H
notes: as for B1
B14: PiH1007 (antibody, human IgG1, kappa, V domains shown)
VH: B1 VH with S44G, L51V, K74T
VL: B1 VL with D17G, K45R
notes: humanized from 51C10H4; IgG1; also called 51-VH3 + VL4
B15: PiH1008 (antibody, human IgG1, kappa, V domains shown)
VH: B1 VH with L51V
VL: B1 VL with D17G, K45R
notes: humanized from 51C10H4; IgG1; also called 51-VH4 + VL4
B16: PiH1004-VH-VL-Mutation6 (antibody, human IgG1, kappa, V domains shown)
VH: B1 VH with L51V
VL: B1 VL with W92G
notes: as for B1
B17: PiH1004-VH-VL-Mutation2 (antibody, human IgG1, kappa, V domains shown)
VH: B1 VH with L51V
VL: B1 VL with I29V
notes: as for B1
B18: PiH1006 (antibody, human IgG1, kappa, V domains shown)
VH: B1 VH with S44G, L51V, A68V, K74T
VL: B1 VL with D17G, K45R
notes: humanized from 51C10H4; IgG1; also called 51-VH2 + VL4

Columns and labels:
[1] = target: T1, human CLDN6 (human, UniProt P56747 1-220); assay: FACS on CHO-K1-CLDN6 cells, against PiH1004 (FIG. 40)
T1 construct: whole, on cells; four-transmembrane protein; also called claudin-6; HEK293T-CLDN6
T1 sequence (looked up): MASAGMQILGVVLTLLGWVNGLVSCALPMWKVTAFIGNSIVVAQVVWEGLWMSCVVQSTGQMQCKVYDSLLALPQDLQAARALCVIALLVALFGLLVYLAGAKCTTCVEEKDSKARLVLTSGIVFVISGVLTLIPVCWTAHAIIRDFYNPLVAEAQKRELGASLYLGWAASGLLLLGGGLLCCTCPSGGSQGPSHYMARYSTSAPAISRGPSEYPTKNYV

[2] = target: T1, human CLDN6; assay: FACS on HepG2 tumour cells; target on the cells taken as CLDN6
Procedure: (§1) 50 μL of an antibody to be tested was added to a 96-well plate, then 1×10⁵ cells were added to each well, and incubation was conducted at 4° C. for 1 h. Cells were washed three times with PBS. […] Finally, cells were washed three times with PBS, and signals were read using FACS. A binding capacity of the antibody to each tumor cell was analyzed based on detection data.

[3] = target: T1, human CLDN6; assay: FACS on PA-1 tumour cells; target on the cells taken as CLDN6
Procedure: as §1

[4] = target: T1, human CLDN6; assay: FACS on HEK293T-CLDN6 cells
Procedure: To detect a binding capacity of a chimeric or humanized antibody to CLDN6, a CLDN6-expressing cell line HEK293T-CLDN6 and a CLDN6-negative control cell line HEK293T were washed three times with PBS. 1×10⁵ test cells and 50 μL of an antibody solution to be tested were added to a 96-well plate, and incubated at 4° C. for 1 h. The cells were then washed three times with PBS. […] Finally, cells were washed three times with PBS, and signals were read using FACS.
An EC50 value (a concentration of an antibody that binds to half of binding sites at equilibrium) is calculated through nonlinear regression.

[5] = target: T1, human CLDN6; assay: FACS on HepG2 tumour cells; target on the cells taken as CLDN6; remark: listed apart in the source
Procedure: as §1

Binder | binding result [1] | EC50 [3] [µg/mL] | EC50 [4] [µg/mL] | further results
B1 | binds |  |  | 
B2 |  |  |  | EC50 [2]: 4.7 µg/mL
B3 |  |  |  | EC50 [2]: 1.11 µg/mL
B4 |  |  |  | EC50 [2]: 1.4 µg/mL
B5 |  | 0.883 | 0.455 | 
B6 |  |  |  | EC50 [2]: 0.444 µg/mL
B7 | binds |  |  | 
B8 |  | 0.505 | 0.372 | EC50 [5]: 2.35 µg/mL
B9 | binds |  |  | 
B10 | binds |  |  | 
B11 |  | 0.631 | 0.488 | EC50 [5]: 1.76 µg/mL
B12 |  | 0.754 | 0.635 | 
B13 | binds |  |  | 
B14 |  | 0.697 | 0.374 | EC50 [5]: 2.48 µg/mL
B15 |  | 0.455 | 0.447 | EC50 [5]: 0.886 µg/mL
B16 | binds |  |  | 
B17 | binds |  |  | 
B18 |  | 0.75 | 0.536 | EC50 [5]: 1.5 µg/mL
